T1: Ba/F3 cells expressing human wildtype FLT3 (Homo sapiens, UniProt P36888)
T1 construct: expressed in transfected cells; host or cells: Ba/F3 cells, retrovirally transduced with MSCV-IRES-YFP (pMIY) vector
T1 sequence (P36888 27-993): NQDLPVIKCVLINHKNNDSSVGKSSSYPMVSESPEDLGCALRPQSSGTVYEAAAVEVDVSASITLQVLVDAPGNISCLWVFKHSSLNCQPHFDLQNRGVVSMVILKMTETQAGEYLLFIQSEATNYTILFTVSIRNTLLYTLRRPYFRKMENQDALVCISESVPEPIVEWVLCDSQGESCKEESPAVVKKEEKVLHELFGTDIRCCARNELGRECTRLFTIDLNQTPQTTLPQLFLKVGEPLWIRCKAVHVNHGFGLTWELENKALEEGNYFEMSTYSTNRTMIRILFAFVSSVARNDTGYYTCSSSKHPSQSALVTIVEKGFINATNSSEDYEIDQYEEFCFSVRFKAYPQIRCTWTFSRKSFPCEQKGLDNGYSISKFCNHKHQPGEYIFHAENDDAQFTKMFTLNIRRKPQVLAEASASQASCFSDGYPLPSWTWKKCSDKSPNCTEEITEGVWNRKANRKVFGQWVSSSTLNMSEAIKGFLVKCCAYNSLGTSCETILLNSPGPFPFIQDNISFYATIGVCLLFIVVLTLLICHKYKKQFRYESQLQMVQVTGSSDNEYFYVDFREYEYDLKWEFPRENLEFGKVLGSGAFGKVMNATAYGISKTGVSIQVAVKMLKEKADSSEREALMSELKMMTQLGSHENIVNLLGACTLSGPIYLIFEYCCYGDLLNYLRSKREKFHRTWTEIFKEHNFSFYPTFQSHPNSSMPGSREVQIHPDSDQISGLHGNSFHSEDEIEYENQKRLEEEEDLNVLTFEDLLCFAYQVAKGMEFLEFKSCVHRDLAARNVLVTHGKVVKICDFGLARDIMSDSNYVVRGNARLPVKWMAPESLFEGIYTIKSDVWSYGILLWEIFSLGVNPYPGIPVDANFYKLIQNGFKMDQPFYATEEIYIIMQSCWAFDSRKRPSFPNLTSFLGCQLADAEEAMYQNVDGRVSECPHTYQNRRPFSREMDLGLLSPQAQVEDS


Legend:
[1] = test system: MOLM-13 (FLT3 positive) cells; experiment: Temperature induced internalization in MOLM-13, flow cytometry; assay type: cell-based, human; settings: 30 min at 37° C. compared to 4° C.
Protocol: (§1) For antibody binding studies, cells were stained on ice with primary mouse, rat or human anti-FLT3 antibodies (in house) and secondary antibody Goat F(ab′)2 Anti-Human Ig-PE (2012-09), Goat Anti-Mouse IgG (H+L)-PE (1032-09) or Goat Anti-Rat IgG (H+L)-PE (3052-09) purchased from Southern Biotech. For internalization experiments, cells incubated with anti-FLT3 antibodies were washed and incubated for 30 min at 4° C. or 37° C. followed by staining with secondary antibody.

[2] = target: T1, Ba/F3 cells expressing human wildtype FLT3; experiment: Temperature induced internalization in Ba/F3-FLT3, flow cytometry; assay type: cell-based; settings: 30 min at 37° C. compared to 4° C.
Excerpt: FIG. 1: Evaluation of epitope specificity and internalization capability of anti-FLT3 monoclonal antibodies. (A) Affinity of seven anti-FLT3 monoclonal antibody (mab) clones to recombinant human FLT3 measured in enzyme-linked immunosorbent assay (ELISA) normalized to the binding of the antibodies to BSA control. […] (B) Schematic FLT3 receptor. Black arrows indicate common mutations and blue arrows indicate the three identified epitopes of seven anti-FLT3 antibodies analyzed in linear epitope mapping by PEPperPRINT. Figure was created with BioRender.com. (C) Binding and temperature induced internalization of anti-FLT3 antibodies in Ba/F3 cells expressing human wildtype FLT3. Internalization was induced by incubation for 30 min at 37° C. (grey) compared to 4° C. (black). Remaining surface-bound antibody was detected in flow cytometry. MFI was normalized to control human IgG1 binding. MFI=mean fluorescence intensity. […] (D) Cell surface binding of 20D9 mab or control human IgG1 antibody to Ba/F3 cells stably expressing pMIY (Ba/F3-pMIY) empty vector (ev), human wildtype (hFLT3 wt) or ITD mutant human FLT3 (hFLT3ITD) was measured in flow cytometry. Mean±s.d. of n=3. (E) Temperature induced internalization of 4B12 mab in MOLM-13 (FLT3 positive) cells after 30 min incubation at 37° C. compared to 4° C. and HL-60 (FLT3 negative) after 37° C. incubation assessed in immunofluorescence staining. Red=FLT3 staining by 4B12, Green=membrane staining by Vybrant DiO, Blue=nuclear staining by DAPI. Scale bar 5 μm. Representative pictures are shown. (F) Cell surface binding of 20D9 mab or control hIgG1 antibody to Ba/F3-pMIY ev, hFLT3 wt, murine (mFLT3 wt) or cynomolgues monkey FLT3 (cynoFLT3 wt) was measured in flow cytometry. Mean±s.d. of n=3. (G) Cell surface binding of 20D9 mab or control hIgG1 antibody to Ba/F3-PMIY ev, hFLT3 wt or epitope mutant FLT3 (hFLT3/S50P/P54R) measured in flow cytometry. Mean±s.d. of n=3. (H) Cell surface binding of 20D9 mab or control hIgG1 antibody to Ba/F3-PMIY ev, hFLT3 wt or human CD64 (hCD64) measured in flow cytometry. Mean±s.d. of n=3. […]

cynomolgus monkey FLT3 = experiment: Cell surface binding to Ba/F3 cynoFLT3, flow cytometry
Protocol: as §1
Murine FLT3 (OMu21985D, Genescript), human CD64 (RC207487), CD32 (RC205786) and CD16 (RC206429), were purchased from Origene. Cynomolgues monkey FLT3 gene was synthesized from XM_015439107.1 by Eurofins. The constructs were cloned into retroviral expression vector MSCV-IRES-YFP (pMIY) using the In-Fusion HD Cloning Plus Kit (Takara Bio, Saint-Germain-en-Laye, France). All FLT3 point mutations were generated using the QuikChange II XL Site-Directed Mutagenesis Kit (Agilent Technologies, Santa Clara, CA, USA) and correct sequence was confirmed by Sanger sequencing. MSCV-IRES-YFP vectors with inserted human wildtype FLT3 and ITD (w51 and NPOS) mutated FLT3 has been described before (e.g., Opatz S, Polzer H, Herold T, et al. Exome sequencing identifies recurring FLT3 N676K mutations in core-binding factor leukemia. Blood. 2013; 122 (10): 1761-1769. doi: 10.1182/blood-2013-01-476473).
For FLT3 expression analysis, cells were stained on ice with primary mouse anti-FLT3-AF647 antibodies for 30 min. For antibody binding studies, cells were stained on ice with chimeric (20D9) or humanized anti-FLT3 antibodies (in house) or IgG1 control with or without Leu234Ala/Leu235Ala (LALA)-mutation in the Fc region and secondary antibody goat F(ab′)2 Anti-Human IgG-AF647 (2042-31) purchased from Southern Biotech for 30 min, respectively. Binding and expression were subsequently measured at the flow cytometer (BD FACSCanto II) and the results were evaluated with FlowJo version 10.8.1.

Internalization in Ba/F3-FLT3 [2] [%]	Molecule	Internalization in MOLM-13 [1] [%]	Cross reactivity for cyno (cynomolgus monkey FLT3)	Binding to cynomolgus monkey FLT3 expressing Ba/F3 cell lines (cynomolgus monkey FLT3)
86	4B12: chimeric anti-FLT3 antibody from rat; VH SEQ ID NO: 9, VL SEQ ID NO: 10 (antibody, V domains shown, Clone 4B12, heavy chain variable region without a signal sequence; Clone 4B12, light chain variable region without a signal seqeunce) VH: QVQLQQSGPGLVQPSQTLSLTCTVSGFSLTSYNVNWVRQPPGKGLEWIGAMWRGGGTDYNPALKSRLSISRDTSKSQVFLKMNRLQTEDTAIYFCTRGFGDYWGQGVMVTVSSA VL: DIQMTQTPLSLSVAIGQSASISCKSSQSLKYSDGKTYLNWVFQSPGQSPKRLIYQVSKLDSGVPDRFSGTGSETDFTLKISRVEAEDLGVYYCCQGSYSPSTFGAGTKLELKR	58	cross-reactive and yes	
79	20D9: chimeric (rat variable regions, human IgG1) anti-FLT3 monoclonal antibody; VH SEQ ID NO: 5, VL SEQ ID NO: 6 (antibody, V domains shown, Clone 20D9, heavy chain variable region without a signal seqeunce; Clone 20D9, light chain variable region without a signal seqeunce) VH: DVMLVESGGGLVQPGRSLKLSCVASGFTFNNYWMTWIRQAPGKGLEWIASITKTGGGTYYPDSVKGRFTISRDNAKSTLYLQMNSLRSEDTATYYCTTLQQLGVMDAWGQGASVTVSSA VL: DVQMTQSPSVLSASVGDRITLNCKASQNINKELNWYQQKLGEAPKLLIYNTNNLQTGIPSRFSGSGSGTDYTLTISSLQPEDVATYFCFQHKSWPLTFGSGTKLEIKR	64	cross-reactive and yes	bound

— patent US20250049939A1, “NOVEL FLT3 ANTIBODIES AND ANTIBODY-DRUG-CONJUGATES BASED THEREON, THERAPEUTIC METHODS AND USES THEREOF IN COMBINATION WITH TYROSINE KINASE INHIBITORS” (TUBULIS GmbH, priority 2021, published 2025)
